{"source": "patent US20060030527A1", "target": "Fc receptor on THP-1 cells", "assay": "cell-based or functional assay"}
{"substance": "human IgG1 (heat aggregated, plate coated) (antibody)", "values": [{"measurement": "TNF secretion by THP-1 cells on wells coated with 10 ug/well heat aggregated protein", "result": "> 40", "unit": "ng/well"}]}
